Measurements from paper PMC4091835 (Nature structural & molecular biology, 2014).
Blank lines part the entries; values can stand above or below the binder they belong to.

B1: Human Cdc42 residues 1–178, constitutively active mutant G12V (domain or fragment)
chain: not shown
B3: Full-length human IRSp53 (natural protein, UniProt Q9UQB8-4 1-521, looked up)
chain: MSLSRSEEMHRLTENVYKTIMEQFNPSLRNFIAMGKNYEKALAGVTYAAKGYFDALVKMGELASESQGSKELGDVLFQMAEVHRQIQNQLEEMLKSFHNELLTQLEQKVELDSRYLSAALKKYQTEQRSKGDALDKCQAELKKLRKKSQGSKNPQKYSDKELQYIDAISNKQGELENYVSDGYKTALTEERRRFCFLVEKQCAVAKNSAAYHSKGKELLAQKLPLWQQACADPSKIPERAVQLMQQVASNGATLPSALSASKSNLVISDPIPGAKPLPVPPELAPFVGRMSAQESTPIMNGVTGPDGEDYSPWADRKAAQPKSLSPPQSQSKLSDSYSNTLPVRKSVTPKNSYATTENKTLPRSSSMAAGLERNGRMRVKAIFSHAAGDNSTLLSFKEGDLITLLVPEARDGWHYGESEKTKMRGWFPFSYTRVLDSDGSDRLHMSLQQGKSSSTGNLLDKDDLAIPPPDYGAASRAFPAQTASGFKQRPYSVAVPAFSQGLDDYGARSMSSGSGTLVSTV
B5: CRIB–PR domain of IRSp53 (residues 260–291), synthetic peptide (peptide, UniProt Q9UQB8-4 260-291, looked up)
peptide: Ac-ASKSNLVISDPIPGAKPLPVPPELAPFVGRMS-NH2

Key:
[1] = target: B5; experiment: ITC
Full-length human IRSp53 [2] = target: B3; experiment: ITC
Full-length human IRSp53 [3] = target: B3; experiment: SEC + other: glycerol gradient sedimentation
[4] = target: the molecule itself; experiment: SEC + other: glycerol gradient sedimentation
[5] = target: B5; experiment: ITC
[6] = target: B1; experiment: ITC

Binder: B1
stoichiometry N [1]: 1 Cdc42 per CRIB–PR | Kd (Full-length human IRSp53 [2]): 16.1 µM | fold reduction of the enthalpy of binding against CRIB–PR (Full-length human IRSp53 [2]): 3 fold | stoichiometry N (Full-length human IRSp53 [2]): 1 Cdc42 per CRIB–PR

stoichiometry N (Full-length human IRSp53 [3]): 1 Eps8 per IRSp53 (2:2)
B2: Human Eps8 (natural protein, UniProt Q12929 1-822, looked up)
chain: MNGHISNHPSSFGMYPSQMNGYGSSPTFSQTDREHGSKTSAKALYEQRKNYARDSVSSVSDISQYRVEHLTTFVLDRKDAMITVDDGIRKLKLLDAKGKVWTQDMILQVDDRAVSLIDLESKNELENFPLNTIQHCQAVMHSCSYDSVLALVCKEPTQNKPDLHLFQCDEVKANLISEDIESAISDSKGGKQKRRPDALRMISNADPSIPPPPRAPAPAPPGTVTQVDVRSRVAAWSAWAADQGDFEKPRQYHEQEETPEMMAARIDRDVQILNHILDDIEFFITKLQKAAEAFSELSKRKKNKKGKRKGPGEGVLTLRAKPPPPDEFLDCFQKFKHGFNLLAKLKSHIQNPSAADLVHFLFTPLNMVVQATGGPELASSVLSPLLNKDTIDFLNYTVNGDERQLWMSLGGTWMKARAEWPKEQFIPPYVPRFRNGWEPPMLNFMGATMEQDLYQLAESVANVAEHQRKQEIKRLSTEHSSVSEYHPADGYAFSSNIYTRGSHLDQGEAAVAFKPTSNRHIDRNYEPLKTQPKKYAKSKYDFVARNNSELSVLKDDILEILDDRKQWWKVRNASGDSGFVPNNILDIVRPPESGLGRADPPYTHTIQKQRMEYGPRPADTPPAPSPPPTPAPVPVPLPPSTPAPVPVSKVPANITRQNSSSSDSGGSIVRDSQRHKQLPVDRRKSQMEEVQDELIHRLTIGRSAAQKKFHVPRQNVPVINITYDSTPEDVKTWLQSKGFNPVTVNSLGVLNGAQLFSLNKDELRTVCPEGARVYSQITVQKAALEDSSGSSELQEIMRRRQEKISAAASDSGVESFDEGSSH

Binder: B3
stoichiometry N [4]: 2

Kd [5]: 114 µM
B4: Isolated SH3 domain of IRSp53 (domain or fragment)
chain: NGRMRVKAIFSHAAGDNSTLLSFKEGDLITLLVPEARDGWHYGESEKTKMRGWFPFSYTRVLDS

Binder: B5
Kd [6]: 5 µM
